Experimental data from paper PMC3678023 (Journal of Molecular Biology, 2013).

How the values were obtained:
[1] = system: thermostabilised SERT mutants SAH6 and SAH7; test: Competition binding, statements covering both thermostabilised mutants; set-up: species or system rat; conditions: over SAH6 and SAH7
Description: The samples were incubated for 2 h at 30 °C and then filtered on 96-well glass fibre plates (Millipore) pre-treated with 200 μl of 0.1% polyethyleneimine. The filters were washed three times with 200 μl ice-cold SERT buffer [100 mM NaCl and 20 mM Tris (pH 7.4)], dried for 1 h at 50 °C prior to liquid scintillation counting. Competition binding assays were performed as above, but a range of concentrations of unlabelled ligand was included and a final concentration of 0.2 nM [^125I]RTI55 was used.

[2] = Protocol: Thermostability assays usually involved adding the radioligand to detergent-solubilised membrane proteins,[9] but the only detergent that SERT was stable in was digitonin,[34] which is unsuitable for crystallography. Therefore, a different assay where an inhibitor was used to stabilise the transporter was developed. This entailed adding [^125I]RTI55 to the T-REx-SERT cells followed by detergent solubilisation and then the thermostability assay (heating samples at various temperatures for 30 min). The apparent Tm was defined as the temperature where 50% of the transporter still bound the radiolabelled inhibitor (Fig. S2).
The thermostability of detergent-solubilised [^125I]RTI55-bound SERT was determined as previously described for GPCRs.[5,6,8,9] Briefly, cells containing unpurified SERT were incubated with 1 nM [^125I]RTI55 for 30 min on ice, which were then solubilised with detergent on ice for 30 min before incubation at varying temperatures for 30 min. The radioligand bound to the membrane protein was separated from free radioligand by centrifugal gel filtration and the radioligand bound to the eluted transporter measured by liquid scintillation counting.

[3] = system: T-REx-293 cells expressing SAH6-GFP, SAH7-GFP or SERT-GFP; test: [3H]5HT uptake assay in stable T-REx cell lines; assay type: cell-based; conditions: tetracycline-induced stable cell lines, 2 μM [3H]5HT, 25 °C, 3 min
From the text: [^3H]5HT was released by rupturing the cells with 2% SDS, which was quantified by liquid scintillation counting.

Molecule: ibogaine
- Lower affinity versus wild-type transporter [1]: up to 90 fold

B1: wild-type SERT: rat serotonin transporter, wild type (protein, UniProt P31652 1-630, looked up)
Sodium-dependent serotonin …: METTPLNSQKVLSECKDREDCQENGVLQKGVPTTADRAEPSQISNGYSAVPSTSAGDEASHSIPAATTTLVAEIRQGERETWGKKMDFLLSVIGYAVDLGNIWRFPYICYQNGGGAFLLPYTIMAIFGGIPLFYMELALGQYHRNGCISIWRKICPIFKGIGYAICIIAFYIASYYNTIIAWALYYLISSLTDRLPWTSCTNSWNTGNCTNYFAQDNITWTLHSTSPAEEFYLRHVLQIHQSKGLQDLGTISWQLTLCIVLIFTVIYFSIWKGVKTSGKVVWVTATFPYIVLSVLLVRGATLPGAWRGVVFYLKPNWQKLLETGVWVDAAAQIFFSLGPGFGVLLAFASYNKFNNNCYQDALVTSVVNCMTSFVSGFVIFTVLGYMAEMRNEDVSEVAKDAGPSLLFITYAEAIANMPASTFFAIIFFLMLITLGLDSTFAGLEGVITAVLDEFPHIWAKRREWFVLIVVITCVLGSLLTLTSGGAYVVTLLEEYATGPAVLTVALIEAVAVSWFYGITQFCSDVKEMLGFSPGWFWRICWVAISPLFLLFIICSFLMSPPQLRLFQYNYPHWSIVLGYCIGMSSVICIPTYIIYRLISTPGTLKERIIKSITPETPTEIPCGDIRMNAV
- Apparent Tm ([2]; [125I]RTI55-bound, solubilised in 0.1% DDM, heated 30 min): 28 °C
- Transporter remaining functional after heating ([2]; single-temperature assay, 28 °C for 30 min): approximately 40%
- [3H]5HT transport [3]: robust transport
